Target: the molecule itself
Assay: SEC

B1: Wild-type aldolase B (enzyme, human, UniProt P05062 1-364, looked up)
chain: MAHRFPALTQEQKKELSEIAQSIVANGKGILAADESVGTMGNRLQRIKVENTEENRRQFREILFSVDSSINQSIGGVILFHETLYQKDSQGKLFRNILKEKGIVVGIKLDQGGAPLAGTNKETTIQGLDGLSERCAQYKKDGVDFGKWRAVLRIADQCPSSLAIQENANALARYASICQQNGLVPIVEPEVIPDGDHDLEHCQYVTEKVLAAVYKALNDHHVYLEGTLLKPNMVTAGHACTKKYTPEQVAMATVTALHRTVPAAVPGICFLSGGMSEEDATLNLNAINLCPLPKPWKLSFSYGRALQASALAAWGGKAANKEATQEAFMKRAMANCQAAKGQYVHTGSSGAASTQSLFTACYTY
- stoichiometry N: 4
